Test results taken from US20150344570A1 (published 2015).

T1: FcγRIIa H (FcγRIIa, allotype with His at position 131), extracellular domain with C-terminal His tag (human, UniProt P12318 34-217)
T1 construct: extracellular domain; also called FcgRIIa H; 2aH; not shown: His tag at the C terminus
T1 sequence (looked up): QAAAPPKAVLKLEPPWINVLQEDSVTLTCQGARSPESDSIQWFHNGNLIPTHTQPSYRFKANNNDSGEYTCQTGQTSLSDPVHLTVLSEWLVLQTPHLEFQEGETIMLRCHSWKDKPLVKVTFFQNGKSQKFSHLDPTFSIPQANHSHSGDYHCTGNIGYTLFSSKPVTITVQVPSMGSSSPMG

T2: FcγRIIb, extracellular domain with C-terminal His tag (human, UniProt P31994 43-217)
T2 construct: extracellular domain; also called FcgRIIb; 2b; not shown: His tag at the C terminus
T2 sequence (looked up): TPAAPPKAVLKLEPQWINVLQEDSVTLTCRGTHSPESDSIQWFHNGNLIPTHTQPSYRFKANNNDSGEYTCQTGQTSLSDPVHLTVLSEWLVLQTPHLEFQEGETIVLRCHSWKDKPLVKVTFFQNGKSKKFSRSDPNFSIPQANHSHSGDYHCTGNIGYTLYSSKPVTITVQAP


Experiments:
[1] = molecular target: T1, FcγRIIa H (FcγRIIa, allotype with His …); assay: SPR (Biacore); He/Con_2aH divided by He/Con_2b (FcγRIIb)
[2] = molecular target: T1, FcγRIIa H (FcγRIIa, allotype with His …); assay: SPR (Biacore), relative binding vs GpH7-A5/GpH7-B3/GpL16-k0
[3] = molecular target: T2, FcγRIIb, extracellular domain with …; assay: as above

Row | Binder | He_2aH/2b (IIaH/IIb) [1] [ratio] | He/Con_2aH [2] | He/Con_2b [3]
1 | GpH7-A5/GpH7-B3 variant K326_15Y/GpL16-k0 (antibody, human IgG1, kappa, Heterodimerized anti-glypican-3 IgG1; mutation in one H chain only; also called He Ab) heavy 1: not shown heavy 2: not shown light: DIVMTQSPLSLPVTPGEPASISCQASESLVHSNRNTYLHWYLQKPGQSPQLLIYKVSNRFSGVPDRFSGSGSGTDFTLKISRVEAEDVGVYYCSQNTHVPPTFGQGTKVEIERTVAAPSVFIFPPSDEQLKSGTASVVCLLNNFYPREAKVQWKVDNALQSGNSQESVTEQDSKDSTYSLSSTLTLSKADYEKHKVYACEVTHQGLSSPVTKSFNRGEC | 0.62 | 98.3 % of HeCon Ab (=100) | 159 % of HeCon Ab (=100)
2 | GpH7-A5/GpH7-B3 variant K326_19Q/GpL16-k0 (antibody, human IgG1, kappa, Heterodimerized anti-glypican-3 IgG1; mutation in one H chain only; also called He Ab) heavy 1: not shown heavy 2: not shown light: DIVMTQSPLSLPVTPGEPASISCQASESLVHSNRNTYLHWYLQKPGQSPQLLIYKVSNRFSGVPDRFSGSGSGTDFTLKISRVEAEDVGVYYCSQNTHVPPTFGQGTKVEIERTVAAPSVFIFPPSDEQLKSGTASVVCLLNNFYPREAKVQWKVDNALQSGNSQESVTEQDSKDSTYSLSSTLTLSKADYEKHKVYACEVTHQGLSSPVTKSFNRGEC | 0.73 | 101 % of HeCon Ab (=100) | 139 % of HeCon Ab (=100)
3 | GpH7-A5/GpH7-B3 variant K326_20W/GpL16-k0 (antibody, human IgG1, kappa, Heterodimerized anti-glypican-3 IgG1; mutation in one H chain only; also called He Ab) heavy 1: not shown heavy 2: not shown light: DIVMTQSPLSLPVTPGEPASISCQASESLVHSNRNTYLHWYLQKPGQSPQLLIYKVSNRFSGVPDRFSGSGSGTDFTLKISRVEAEDVGVYYCSQNTHVPPTFGQGTKVEIERTVAAPSVFIFPPSDEQLKSGTASVVCLLNNFYPREAKVQWKVDNALQSGNSQESVTEQDSKDSTYSLSSTLTLSKADYEKHKVYACEVTHQGLSSPVTKSFNRGEC | 0.56 | 83.3 % of HeCon Ab (=100) | 148 % of HeCon Ab (=100)
4 | GpH7-A5/GpH7-B3 variant N325_02A/GpL16-k0 (antibody, human IgG1, kappa, Heterodimerized anti-glypican-3 IgG1; mutation in one H chain only; also called He Ab) heavy 1: not shown heavy 2: not shown light: DIVMTQSPLSLPVTPGEPASISCQASESLVHSNRNTYLHWYLQKPGQSPQLLIYKVSNRFSGVPDRFSGSGSGTDFTLKISRVEAEDVGVYYCSQNTHVPPTFGQGTKVEIERTVAAPSVFIFPPSDEQLKSGTASVVCLLNNFYPREAKVQWKVDNALQSGNSQESVTEQDSKDSTYSLSSTLTLSKADYEKHKVYACEVTHQGLSSPVTKSFNRGEC | 0.74 | 47.6 % of HeCon Ab (=100) | 64.4 % of HeCon Ab (=100)
5 | GpH7-A5/GpH7-B3 variant N325_03V/GpL16-k0 (antibody, human IgG1, kappa, Heterodimerized anti-glypican-3 IgG1; mutation in one H chain only; also called He Ab) heavy 1: not shown heavy 2: not shown light: DIVMTQSPLSLPVTPGEPASISCQASESLVHSNRNTYLHWYLQKPGQSPQLLIYKVSNRFSGVPDRFSGSGSGTDFTLKISRVEAEDVGVYYCSQNTHVPPTFGQGTKVEIERTVAAPSVFIFPPSDEQLKSGTASVVCLLNNFYPREAKVQWKVDNALQSGNSQESVTEQDSKDSTYSLSSTLTLSKADYEKHKVYACEVTHQGLSSPVTKSFNRGEC | 0.41 | 45.2 % of HeCon Ab (=100) | 111 % of HeCon Ab (=100)
6 | GpH7-A5/GpH7-B3 variant N325_04F/GpL16-k0 (antibody, human IgG1, kappa, Heterodimerized anti-glypican-3 IgG1; mutation in one H chain only; also called He Ab) heavy 1: not shown heavy 2: not shown light: DIVMTQSPLSLPVTPGEPASISCQASESLVHSNRNTYLHWYLQKPGQSPQLLIYKVSNRFSGVPDRFSGSGSGTDFTLKISRVEAEDVGVYYCSQNTHVPPTFGQGTKVEIERTVAAPSVFIFPPSDEQLKSGTASVVCLLNNFYPREAKVQWKVDNALQSGNSQESVTEQDSKDSTYSLSSTLTLSKADYEKHKVYACEVTHQGLSSPVTKSFNRGEC | 0.23 | 33.4 % of HeCon Ab (=100) | 143 % of HeCon Ab (=100)
7 | GpH7-A5/GpH7-B3 variant N325_05P/GpL16-k0 (antibody, human IgG1, kappa, Heterodimerized anti-glypican-3 IgG1; mutation in one H chain only; also called He Ab) heavy 1: not shown heavy 2: not shown light: DIVMTQSPLSLPVTPGEPASISCQASESLVHSNRNTYLHWYLQKPGQSPQLLIYKVSNRFSGVPDRFSGSGSGTDFTLKISRVEAEDVGVYYCSQNTHVPPTFGQGTKVEIERTVAAPSVFIFPPSDEQLKSGTASVVCLLNNFYPREAKVQWKVDNALQSGNSQESVTEQDSKDSTYSLSSTLTLSKADYEKHKVYACEVTHQGLSSPVTKSFNRGEC | 0.8 | 20.7 % of HeCon Ab (=100) | 26 % of HeCon Ab (=100)
8 | GpH7-A5/GpH7-B3 variant N325_06M/GpL16-k0 (antibody, human IgG1, kappa, Heterodimerized anti-glypican-3 IgG1; mutation in one H chain only; also called He Ab) heavy 1: not shown heavy 2: not shown light: DIVMTQSPLSLPVTPGEPASISCQASESLVHSNRNTYLHWYLQKPGQSPQLLIYKVSNRFSGVPDRFSGSGSGTDFTLKISRVEAEDVGVYYCSQNTHVPPTFGQGTKVEIERTVAAPSVFIFPPSDEQLKSGTASVVCLLNNFYPREAKVQWKVDNALQSGNSQESVTEQDSKDSTYSLSSTLTLSKADYEKHKVYACEVTHQGLSSPVTKSFNRGEC | 0.22 | 48.2 % of HeCon Ab (=100) | 217 % of HeCon Ab (=100)
9 | GpH7-A5/GpH7-B3 variant N325_07I/GpL16-k0 (antibody, human IgG1, kappa, Heterodimerized anti-glypican-3 IgG1; mutation in one H chain only; also called He Ab) heavy 1: not shown heavy 2: not shown light: DIVMTQSPLSLPVTPGEPASISCQASESLVHSNRNTYLHWYLQKPGQSPQLLIYKVSNRFSGVPDRFSGSGSGTDFTLKISRVEAEDVGVYYCSQNTHVPPTFGQGTKVEIERTVAAPSVFIFPPSDEQLKSGTASVVCLLNNFYPREAKVQWKVDNALQSGNSQESVTEQDSKDSTYSLSSTLTLSKADYEKHKVYACEVTHQGLSSPVTKSFNRGEC | 0.22 | 38.1 % of HeCon Ab (=100) | 171 % of HeCon Ab (=100)
